Common to all, as to test: protein array
Experiment [1] has as its target T1, RNA binding motif protein 47, transcript variant X10 (human, UniProt A0AV96 1-593).
T1 construct: on protein array; also called RBM47
T1 sequence: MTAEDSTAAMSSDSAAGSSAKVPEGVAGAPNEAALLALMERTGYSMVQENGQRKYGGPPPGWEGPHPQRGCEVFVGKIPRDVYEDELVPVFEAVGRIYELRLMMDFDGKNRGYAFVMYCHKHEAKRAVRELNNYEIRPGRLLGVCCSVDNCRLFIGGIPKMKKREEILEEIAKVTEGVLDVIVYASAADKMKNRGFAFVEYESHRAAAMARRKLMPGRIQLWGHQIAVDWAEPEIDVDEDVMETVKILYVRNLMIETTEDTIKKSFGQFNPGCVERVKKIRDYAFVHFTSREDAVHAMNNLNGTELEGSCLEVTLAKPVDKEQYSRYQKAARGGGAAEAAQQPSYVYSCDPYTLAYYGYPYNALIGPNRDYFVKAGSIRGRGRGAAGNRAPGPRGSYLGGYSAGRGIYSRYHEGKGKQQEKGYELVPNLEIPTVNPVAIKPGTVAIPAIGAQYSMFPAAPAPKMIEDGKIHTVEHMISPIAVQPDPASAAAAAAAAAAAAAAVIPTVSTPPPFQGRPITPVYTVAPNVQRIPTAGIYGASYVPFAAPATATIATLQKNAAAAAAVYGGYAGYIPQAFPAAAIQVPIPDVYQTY

Experiment [2] deals with T2, Microtubule associated scaffold protein 1 (human, UniProt Q9ULD2 875-1270).
T2 construct: on protein array; also called MTUS1
T2 sequence: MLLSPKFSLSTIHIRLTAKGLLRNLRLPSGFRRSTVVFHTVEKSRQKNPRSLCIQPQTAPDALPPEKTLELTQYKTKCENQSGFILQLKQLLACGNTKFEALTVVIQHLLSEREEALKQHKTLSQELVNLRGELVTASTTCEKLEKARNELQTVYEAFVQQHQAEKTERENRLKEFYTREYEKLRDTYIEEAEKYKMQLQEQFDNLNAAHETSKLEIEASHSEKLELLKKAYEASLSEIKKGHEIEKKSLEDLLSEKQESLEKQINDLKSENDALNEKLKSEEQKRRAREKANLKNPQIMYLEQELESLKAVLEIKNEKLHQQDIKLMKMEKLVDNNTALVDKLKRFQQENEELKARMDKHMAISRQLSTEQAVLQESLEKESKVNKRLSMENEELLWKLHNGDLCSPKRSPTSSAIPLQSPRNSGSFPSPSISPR

In experiment [3] the target is T3, RAD1 checkpoint DNA exonuclease, transcript variant 1 (human, UniProt O60671 1-282).
T3 construct: on protein array
T3 sequence: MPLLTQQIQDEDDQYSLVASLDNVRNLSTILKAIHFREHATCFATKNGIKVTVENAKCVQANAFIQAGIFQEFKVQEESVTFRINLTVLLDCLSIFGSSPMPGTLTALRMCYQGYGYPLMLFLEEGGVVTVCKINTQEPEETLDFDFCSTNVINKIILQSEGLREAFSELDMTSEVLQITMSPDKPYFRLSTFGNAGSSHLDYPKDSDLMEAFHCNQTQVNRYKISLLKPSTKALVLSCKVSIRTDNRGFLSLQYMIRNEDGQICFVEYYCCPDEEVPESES

Experiment [4] concerns the target aldo-keto reductase family 1 member B, transcript variant 1 (human, UniProt P15121 2-316).
Experiment [5] concerns the target T4, CDP-diacylglycerol synthase 1 (human, UniProt Q92903 1-461).
T4 construct: on protein array; also called CDS1
T4 sequence: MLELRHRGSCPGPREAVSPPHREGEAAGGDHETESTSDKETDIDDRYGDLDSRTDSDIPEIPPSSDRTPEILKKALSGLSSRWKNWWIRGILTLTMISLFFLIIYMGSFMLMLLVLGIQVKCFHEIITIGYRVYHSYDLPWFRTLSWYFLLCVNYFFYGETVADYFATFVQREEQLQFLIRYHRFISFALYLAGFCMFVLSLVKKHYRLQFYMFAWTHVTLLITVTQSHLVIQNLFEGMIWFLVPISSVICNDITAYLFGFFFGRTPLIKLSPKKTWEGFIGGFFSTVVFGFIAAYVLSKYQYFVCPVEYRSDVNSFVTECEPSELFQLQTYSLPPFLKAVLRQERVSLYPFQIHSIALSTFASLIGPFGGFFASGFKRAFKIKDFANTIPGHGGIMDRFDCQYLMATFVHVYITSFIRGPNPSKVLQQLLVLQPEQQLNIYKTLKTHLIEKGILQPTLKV

Experiment [6] deals with T5, dynein axonemal assembly factor 3, transcript variant 3 (human, UniProt Q8N9W5 1-541).
T5 construct: on protein array; also called DNAAF3
T5 sequence: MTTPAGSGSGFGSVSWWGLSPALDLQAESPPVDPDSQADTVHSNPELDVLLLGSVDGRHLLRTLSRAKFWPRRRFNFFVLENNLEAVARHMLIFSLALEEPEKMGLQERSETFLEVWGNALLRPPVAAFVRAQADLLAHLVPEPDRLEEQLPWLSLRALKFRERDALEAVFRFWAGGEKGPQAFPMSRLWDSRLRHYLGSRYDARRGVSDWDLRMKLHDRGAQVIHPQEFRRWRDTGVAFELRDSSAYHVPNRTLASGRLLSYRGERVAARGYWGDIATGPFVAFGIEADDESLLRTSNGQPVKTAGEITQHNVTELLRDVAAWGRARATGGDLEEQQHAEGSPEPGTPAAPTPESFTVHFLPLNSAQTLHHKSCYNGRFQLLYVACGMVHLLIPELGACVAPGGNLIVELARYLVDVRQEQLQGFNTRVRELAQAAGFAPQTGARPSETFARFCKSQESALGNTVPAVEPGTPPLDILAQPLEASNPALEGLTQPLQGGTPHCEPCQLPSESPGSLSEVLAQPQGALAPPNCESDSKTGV

For experiment [7], the target named is T6, glycogen phosphorylase L, transcript variant 1 (human, UniProt P06737 2-847).
T6 construct: on protein array; also called PYGL
T6 sequence: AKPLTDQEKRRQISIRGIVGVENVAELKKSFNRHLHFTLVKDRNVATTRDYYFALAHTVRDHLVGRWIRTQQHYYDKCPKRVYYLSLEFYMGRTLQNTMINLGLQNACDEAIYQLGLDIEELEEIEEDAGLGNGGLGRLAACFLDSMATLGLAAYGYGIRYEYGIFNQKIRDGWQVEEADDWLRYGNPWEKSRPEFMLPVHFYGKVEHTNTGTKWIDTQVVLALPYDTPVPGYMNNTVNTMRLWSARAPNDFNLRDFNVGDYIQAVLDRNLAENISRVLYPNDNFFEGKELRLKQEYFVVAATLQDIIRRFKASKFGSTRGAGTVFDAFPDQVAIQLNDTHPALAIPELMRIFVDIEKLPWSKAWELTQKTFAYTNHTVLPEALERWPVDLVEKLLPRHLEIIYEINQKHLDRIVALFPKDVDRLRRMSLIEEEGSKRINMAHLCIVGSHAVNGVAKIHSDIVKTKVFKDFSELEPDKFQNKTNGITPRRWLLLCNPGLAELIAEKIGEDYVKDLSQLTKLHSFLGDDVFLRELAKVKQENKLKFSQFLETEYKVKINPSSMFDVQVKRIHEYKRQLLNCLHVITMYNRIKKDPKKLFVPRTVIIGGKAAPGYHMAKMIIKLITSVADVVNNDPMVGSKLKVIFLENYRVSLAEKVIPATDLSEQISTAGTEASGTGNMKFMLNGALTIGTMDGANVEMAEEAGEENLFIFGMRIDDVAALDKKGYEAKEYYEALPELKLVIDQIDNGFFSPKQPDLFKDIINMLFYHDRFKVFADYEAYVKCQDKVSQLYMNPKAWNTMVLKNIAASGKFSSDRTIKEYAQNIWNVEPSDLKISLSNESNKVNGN

Experiment [8] addresses T7, synaptotagmin 12, transcript variant X4 (human, UniProt Q8IV01 1-421).
T7 construct: on protein array; also called SYT12
T7 sequence: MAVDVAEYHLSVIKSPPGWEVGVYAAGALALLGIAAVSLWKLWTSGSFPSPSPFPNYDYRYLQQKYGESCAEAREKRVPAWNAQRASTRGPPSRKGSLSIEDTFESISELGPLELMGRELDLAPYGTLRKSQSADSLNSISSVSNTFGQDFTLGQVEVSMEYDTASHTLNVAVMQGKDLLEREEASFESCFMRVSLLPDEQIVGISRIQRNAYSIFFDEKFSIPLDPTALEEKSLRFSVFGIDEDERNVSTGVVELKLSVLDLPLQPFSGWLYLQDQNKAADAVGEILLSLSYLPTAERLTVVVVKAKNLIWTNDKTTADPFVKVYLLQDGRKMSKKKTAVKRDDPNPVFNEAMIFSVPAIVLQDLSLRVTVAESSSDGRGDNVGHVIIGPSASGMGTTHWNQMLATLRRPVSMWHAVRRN

In a further experiment the target is T8, Reticulocalbin 3 (human, UniProt Q96D15 21-328).
T8 construct: on protein array; also called RCN3
T8 sequence: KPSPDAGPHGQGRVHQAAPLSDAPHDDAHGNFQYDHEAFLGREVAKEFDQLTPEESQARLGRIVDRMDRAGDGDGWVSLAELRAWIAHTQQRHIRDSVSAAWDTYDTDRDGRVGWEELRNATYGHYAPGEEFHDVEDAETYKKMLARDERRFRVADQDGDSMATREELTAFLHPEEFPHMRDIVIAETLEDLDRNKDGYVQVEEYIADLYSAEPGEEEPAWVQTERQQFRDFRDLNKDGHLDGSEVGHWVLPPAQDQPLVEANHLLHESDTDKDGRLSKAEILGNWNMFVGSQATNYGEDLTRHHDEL

Experiment [9] concerns the target T9, coiled-coil domain containing 102A, transcript variant X1 (human, UniProt Q96A19 1-550).
T9 construct: on protein array; also called CCDC102A

Experiment [10] addresses T10, NCCRP1, F-box associated domain containing (human, UniProt Q6ZVX7 1-275).
T10 construct: on protein array
T10 sequence: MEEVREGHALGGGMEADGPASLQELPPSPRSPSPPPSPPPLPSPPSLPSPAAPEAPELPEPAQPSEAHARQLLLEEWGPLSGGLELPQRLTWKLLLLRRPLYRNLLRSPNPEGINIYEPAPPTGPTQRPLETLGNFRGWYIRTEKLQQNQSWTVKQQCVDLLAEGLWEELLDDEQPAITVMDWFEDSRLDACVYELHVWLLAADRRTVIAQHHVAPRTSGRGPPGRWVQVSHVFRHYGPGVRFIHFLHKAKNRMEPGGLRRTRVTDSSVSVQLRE

T9 sequence (Q96A19 other isoform, or with tags, fused parts or gaps mutant limits assumed): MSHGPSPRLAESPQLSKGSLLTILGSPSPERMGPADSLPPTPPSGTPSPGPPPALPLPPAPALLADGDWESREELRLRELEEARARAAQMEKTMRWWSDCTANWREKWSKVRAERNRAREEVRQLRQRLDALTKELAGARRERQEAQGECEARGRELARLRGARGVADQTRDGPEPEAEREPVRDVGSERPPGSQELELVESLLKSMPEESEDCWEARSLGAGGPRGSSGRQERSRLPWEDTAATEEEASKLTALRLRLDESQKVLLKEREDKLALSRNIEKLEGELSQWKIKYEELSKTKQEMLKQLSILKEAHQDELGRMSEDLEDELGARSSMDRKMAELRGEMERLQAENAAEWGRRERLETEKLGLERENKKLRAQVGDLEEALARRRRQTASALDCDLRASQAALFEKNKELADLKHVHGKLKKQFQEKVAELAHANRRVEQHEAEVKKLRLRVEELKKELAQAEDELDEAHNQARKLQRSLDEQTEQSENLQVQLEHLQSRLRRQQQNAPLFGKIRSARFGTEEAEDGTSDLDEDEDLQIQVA

B1: THNS1004 (antibody, V domains shown)
VH: EVQLVESGGGLVQPGGSLRLSCAASGFTFSSNWMSWVRQAPGKGLEWVANIKEDGSEKYYVDSVKGRFTIFRDNAKNSLYLQMNSLRAEDTAVYYCARVPSRYGRSRGAFDIWGQGTMVTVSS
VL: DIQMTQSPSSLSASVGDRVTITCRASQSISSYLNWYQQKPGKAPKLLIYAASSLQSGVPSRFSGSGSGTDFTLAISSLQPEDFATYYCHQTYSTRLTFGGGTEVEIKR
notes: VH/VL only
For B1, the binding result in [1] is recorded as “binds”.

B2: THNS1006 (antibody, V domains shown)
VH: QVQLVESGGGVVQPGRSLRLSCAASGFTFSSYGMHWVRQAPGKGLEWVAIISYDGSNKYYADSVKGRFTISRDKSKNTLYLQMNSLRAEDTAVYYCAKSKGNYRDAMDVWGQGTTVTVSS
VL: SYVLTQPPSVSVAPGQTARITCGGNNIGSKSVHWYQQKPGQAPVLVVYDDSDRPSGIPERFSGSNSGNTATLTISRVEAGDEADYYCQVWDSSSDPWVFGGGTKLTVLG
notes: VH/VL only
On to B2, for which the binding result in experiment [2] and in experiment [3] was “binds” in each case.

B3: TKIC1006 (antibody, V domains shown)
VH: QVQLVQSGAEVKKPGSSVKVSCKTSGGTFSSYTISWVRQAPGQGPEWMGRIIPILNITNYAQKFQGRVTITADKSTSTTYMEMGSLRSEDTAVYFCARSFYGSGLQWGQGTLVTVSS
VL: EIVLTQSPGTLSLSPGERATLSCRASQSVSSSYLVWYQQKAGQAPRLLIYGASSRATGISDRFSGSGSGTDFTLTISRLEPEDFAVYYCQHFRSSPPTYTFGQGTKLEIKR
notes: VH/VL tied via antigen in summary, not by name in this stretch
On to B3, for which the binding result in [4] is “binds”.

B4: THNS1014 (antibody, V domains shown)
VH: HVQLLQSGPGLVKPSQTLSLTCAISGDSVSSTSGAWNWIRQSPSRGLEWLGRTYYRSQWMNDYAESVRSRITINPDTSKNQFSLQLKSVTPEDTAVYYCTRGWAFTSSDWGQGTQVTVSS
VL: EIVLTQSPGTLSLSPGERATLSCRASQSFDGKSLAWYQQKPGQTPRLLVYGASSRATGIPDRFGGSGSGTDFTLTISRLESEDFAVYFCQQYAYVPITFGQGTRLERKR
notes: VH/VL only
Regarding B4, the binding result in experiment [5] and in experiment [6] was “binds” each time.

B5: TBLA1007 (antibody, V domains shown)
VH: QVQLVQSGAEVKKPGASVKVSCKASGYTFTNYGFSWVRQAPGQGLEWMGRITTYNRDTIYAQKFQGRVTMTTDTSTSTAYMELRSLRSDDTAVYFCARVVPGDSVYGAFDIWGQGTMVTVSS
VL: DIQMTQSPSSLSASVGDRVTITCRASQSISSYLNWYQQKPGRAPRLLIYAASRLQIGVPSRFSGSGSGTDFTLTISSLQPEDFATYYCQQSYRMPCSFGQGTKLEI
notes: VH/VL only
In the case of B5, the binding result (in experiment [7]; in experiment [8]; in the experiment with Reticulocalbin 3) was “binds” each time.

B6: THNS1003 (antibody, V domains shown)
VH: VVQLVESGGGLVQPGGSLRLSCAASGFTFNNYEMNWVRQAPGKGLEWVSYISSSGSTIYYADSVKGRFTISRDNAKNSLYLQMNSLRAEDTAVYYCARQMVTTRGYWGQGTLVTVSS
VL: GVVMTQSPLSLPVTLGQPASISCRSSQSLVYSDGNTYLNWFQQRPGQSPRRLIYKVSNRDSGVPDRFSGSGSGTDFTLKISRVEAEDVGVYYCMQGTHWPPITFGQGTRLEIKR
notes: VH/VL only
Consider B6, for which the binding result in [9] and in experiment [10] was “binds” each time.

(Values after patent US20220204643A1 (published 2022).)
